Values of other authors, collected in article PMC11431639.

Tests used:
INF2 DAD (Homo sapiens) = INF2 DAD (Homo sapiens) (UniProt Q27J81)
mDia1 DAD (Mus musculus) = mDia1 DAD (Mus musculus) (UniProt O08808)
Chain of mDia1 DAD (Mus musculus) (O08808 1174-1208): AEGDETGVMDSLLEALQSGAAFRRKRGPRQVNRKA

Chain of mDia1 DID (O08808 129-369): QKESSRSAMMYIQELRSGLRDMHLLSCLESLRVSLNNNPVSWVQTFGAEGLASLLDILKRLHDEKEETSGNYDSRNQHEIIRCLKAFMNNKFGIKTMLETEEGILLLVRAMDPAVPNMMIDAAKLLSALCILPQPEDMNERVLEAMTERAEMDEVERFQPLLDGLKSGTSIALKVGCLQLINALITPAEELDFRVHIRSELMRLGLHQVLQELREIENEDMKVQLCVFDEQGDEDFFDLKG
Chain of INF2 DAD (Homo sapiens) (Q27J81 971-1000): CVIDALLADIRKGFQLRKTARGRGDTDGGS
Chain of INF2 DID (Q27J81 32-261): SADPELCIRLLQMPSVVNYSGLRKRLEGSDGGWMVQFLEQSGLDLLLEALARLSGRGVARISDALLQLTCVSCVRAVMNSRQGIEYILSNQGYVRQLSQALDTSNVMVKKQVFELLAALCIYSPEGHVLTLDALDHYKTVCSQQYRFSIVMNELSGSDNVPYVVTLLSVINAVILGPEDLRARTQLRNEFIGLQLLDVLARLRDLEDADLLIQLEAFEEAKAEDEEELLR

For INF2 DID (from UniProt Q27J81), the Kd (INF2 DAD (Homo sapiens)) is given as 1100 nM.

In the case of mDia1 DID (from UniProt O08808), the Kd (mDia1 DAD (Mus musculus)) is listed as 280 nM.
